Results reported in patent publication US20250353911A1 (INHIBRX BIOSCIENCES, published 2025).
Numbering of substitutions follows the chain as printed.

Columns and labels:
[1] = molecular target: T1, human FcRn/B2m heterodimer protein (human, UniProt P55899 24-297; P61769 21-119, limits assumed); assay: ELISA on coated human FcRn/B2m heterodimer, pH 7.4, HRP detection antibody, A450
T1 construct: also called FcRn (ELISA)
Protocol: 96-well ELISA plates were coated with human FcRn/B2m heterodimer protein in PBS overnight at 4° C., washed with PBST and then blocked with 3% BSA in PBST for 1 h at RT. Serial dilutions of test articles were prepared in PBST pH 7.4 and added to the plates. Plates were incubated for 1 h at room temperature. After the incubation cells were washed in the PBST and then incubated for 1 h at room temperature with a horse radish peroxidase (HRP)-conjugated antibody detecting the polypeptides. Plates were washed with PBS-T followed by addition of TMB substrate and color allowed to develop. TMB substrate was stopped with an equal volume of stop solution (1M H₂SO₄). Absorbance at 450 nm was measured with a 96 well plate reader (Emax, Molecular Devices). All data were plotted and analyzed using GraphPad Prism analysis software.

[2] = molecular target: T2, human FcRn extracellular domain (ECD) fused to a transmembrane domain and an intracellular citrine, with … (human); assay: flow cytometry, HEK 293 cells transiently expressing human FcRn ECD-TM-citrine and B2M, pH 6; blocked ligand: biotinylated human IgG at 1 µM, detected with streptavidin-AF647
T2 construct: also called human FcRn overexpressed on CHO cells; FcRn transfected CHO cells
Protocol: 50,000 transiently transfected HEK 293 cells were plated in 96-well plates and resuspended in 20 mM His, 150 mM NaCl, pH 6. Serial dilutions of test articles were prepared at 2× the final concentration in the buffer described above and added to the cell suspensions. Plates were incubated for 60 minutes at 4° C. […] Cells were then washed in the buffer described above and subsequently incubated for 30 minutes at 4° C. with a fluorescently labeled (AF647) streptavidin to detect IgG binding to FcRn. Binding of streptavidin to cells expressing FcRn (citrine positive) was measured after a final wash using an iQue Screener (Sartorius). The data were plotted and analyzed using GraphPad Prism analysis software.

[3] = molecular target: T3, Human serum albumin (HSA) (human, UniProt P02768 25-609); assay: ELISA on coated human albumin, pH 7.4, HRP detection antibody, A450
T3 construct: also called human albumin; recombinant human albumin
T3 sequence (P02768 25-609): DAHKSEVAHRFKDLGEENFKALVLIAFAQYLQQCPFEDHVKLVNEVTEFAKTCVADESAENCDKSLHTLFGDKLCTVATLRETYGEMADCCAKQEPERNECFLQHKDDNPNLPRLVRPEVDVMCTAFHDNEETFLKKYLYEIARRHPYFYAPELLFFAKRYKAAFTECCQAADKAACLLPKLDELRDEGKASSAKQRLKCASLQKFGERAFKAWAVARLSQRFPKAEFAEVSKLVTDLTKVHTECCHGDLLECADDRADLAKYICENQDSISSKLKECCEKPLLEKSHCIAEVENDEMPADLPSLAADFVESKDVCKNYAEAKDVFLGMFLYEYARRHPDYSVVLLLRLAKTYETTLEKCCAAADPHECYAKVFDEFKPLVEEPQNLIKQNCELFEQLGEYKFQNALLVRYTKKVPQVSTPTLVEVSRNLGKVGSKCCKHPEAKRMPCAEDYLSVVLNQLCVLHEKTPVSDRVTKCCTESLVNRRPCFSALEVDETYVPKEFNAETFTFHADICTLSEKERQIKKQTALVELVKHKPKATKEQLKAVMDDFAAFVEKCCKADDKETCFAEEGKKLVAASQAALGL
Protocol: (§1) 96-well ELISA plates were coated with albumin protein in PBS overnight at 4° C., washed with PBS-T and then blocked with 5% milk powder in PBS-T for 1 h at room temperature. Serial dilutions of test articles were prepared in PBS pH 7.4 or a buffer containing 20 mM His, 150 mM NaCl, pH 5.5 and added to the plates. Plates were incubated for 1 h at room temperature. After the incubation cells were washed in the respective buffer and then incubated for 30 min at room temperature with a HRP-conjugated antibody detecting the polypeptides. Plates were washed in their respective buffers and TMB substrate was added and color allowed to develop. TMB substrate was stopped with an equal volume of stop solution (1M H₂SO₄). Absorbance at 450 nm was measured with a 96 well plate reader.

[4] = molecular target: T3, Human serum albumin (HSA); assay: ELISA on coated human albumin, pH 5.5, HRP detection antibody, A450
Protocol: as §1

[5] = molecular target: T3, Human serum albumin (HSA); assay: as above; remark: listed apart in the source
Protocol: as §1

[6] = molecular target: T4, human FcRn on primary human monocytes (PBMC) (human, UniProt P55899 24-365; P16213 21-119); assay: flow cytometry, fixed and permeabilized human PBMC, gated monocytes, pH 6, AF647 detection antibody
T4 construct: Endogenous FcRn (with endogenous beta-2 microglobulin) in fixed and permeabilized human PBMC; also called FcRn-expressing human monocytes; FcRn on PBMC subpopulations
Protocol: (§2) Isolated human PBMC were plated in 96-well plates at 120,000 cells per well and washed with PBS, pH 7.4. Cells were stained with Zombie Aqua to exclude dead cells and with specific fluorescently labeled antibodies against surface lineage markers (CD14, CD16, CD3, CD56, CD19 and HLA-DR) to allow gating on different PBMC subpopulations. After the surface marker staining, cells were fixed and permeabilized using a Foxp3/Transcription Factor Fixation/Permeabilization kit (eBioscience™) according to the manufacturer's recommended protocol. Cells were then resuspended in the buffers described above to generate pH 7.4 or pH 6 conditions and test article staining was carried out as described for CHO cells. After the final wash, binding to FcRn on PBMC subpopulations (Monocytes, B cells or T cells) was measured on a Novocyte-Quanteon Flow Cytometer (Agilent).

[7] = molecular target: T4, human FcRn on primary human monocytes …; assay: flow cytometry, fixed and permeabilized human PBMC, gated monocytes, pH 7.4, AF647 detection antibody
Protocol: as §2

[8] = molecular target: T2, human FcRn extracellular domain (ECD) …; assay: flow cytometry, CHO cells transiently expressing human FcRn ECD-TM-citrine and B2M, pH 6, AF647 detection antibody
Protocol: (§3) Binding of anti-FcRn VHH polypeptides to human FcRn at neutral (7.4) or endosomal (6) pH was tested by flow cytometry using a CHO-based overexpression system or isolated human peripheral blood mononuclear cells (PBMC).
(§4) CHO cells were plated in 96-well plates at 50,000 cells per well and resuspended in PBS, pH 7.4 or a buffer containing 20 mM His, 150 mM NaCl, pH 6. Serial dilutions of test articles were prepared at 2× the final concentration in the buffers described above (pH 7.4 or pH 6) and added to the cell suspensions. Plates were incubated for 60 minutes at 4° C. After the incubation cells were washed in the respective buffer and then incubated for 30 minutes at 4° C. with a fluorescently labeled (AF647) antibody detecting the VHH polypeptides. Binding of the detection antibody to FcRn on transfected cells (citrine positive) was measured after a final wash using an iQue Screener (Sartorius).

[9] = molecular target: T2, human FcRn extracellular domain (ECD) …; assay: as above; remark: listed apart in the source
Protocol: as §3, §4

[10] = molecular target: T2, human FcRn extracellular domain (ECD) …; assay: flow cytometry, CHO cells transiently expressing human FcRn ECD-TM-citrine and B2M, pH 7.4, AF647 detection antibody
Protocol: as §3, §4

[11] = molecular target: T2, human FcRn extracellular domain (ECD) …; assay: as above; remark: listed apart in the source
Protocol: as §3, §4

[12] = molecular target: T3, Human serum albumin (HSA); assay: ELISA on coated human albumin, pH 7.4, HRP detection antibody, A450; remark: listed apart in the source
Protocol: as §1

[13] = molecular target: T3, Human serum albumin (HSA); assay: ELISA, albumin coated, sdAb fusion titrated, anti-human Fc HRP
Protocol: (§5) Medisorp plates were coated with albumin protein at 2 μg/ml, 50 μl/well at 4° C. overnight (human, murine, and rat albumin-Sigma, cynomolgus monkey albumin-Abcam). 1× Fish Gelatin (blocking agent, Bethyl Laboratories) was added to albumin-coated wells followed by a 1 hour incubation at RT. Titrations of sdAb fusion proteins (starting at 100 nM, across 1:3 or down 1:4) were added and incubated for 1 hour at RT. Plates were washed 3 times with 0.1% D-PBST, and then anti-human Fc HRP antibody (1:2000 in 0.1% D-PBST, Jackson) was added and incubated for 30 minutes at RT. Plates were washed 3 times with 0.1% D-PBST, and then TMB substrate was added. Absorbance at 650 nm was read on a plate reader (Molecular Devices) and data were plotted using equation one site-total binding (Model: Y=Bmax*X/(Kd+X)+NS*X+Background, GraphPad Prism).

[14] = molecular target: T5, Murine serum albumin (MSA) (mouse, UniProt P07724 25-608); assay: as above
T5 construct: Bought protein (Sigma); also called murine albumin; mouse albumin
Protocol: as §5

[15] = molecular target: T6, Cynomolgus monkey serum albumin (CSA) (cynomolgus monkey, UniProt A2V9Z4 25-608); assay: as above
T6 construct: Bought protein (Abcam); also called cynomolgus monkey albumin
T6 sequence (A2V9Z4 25-608): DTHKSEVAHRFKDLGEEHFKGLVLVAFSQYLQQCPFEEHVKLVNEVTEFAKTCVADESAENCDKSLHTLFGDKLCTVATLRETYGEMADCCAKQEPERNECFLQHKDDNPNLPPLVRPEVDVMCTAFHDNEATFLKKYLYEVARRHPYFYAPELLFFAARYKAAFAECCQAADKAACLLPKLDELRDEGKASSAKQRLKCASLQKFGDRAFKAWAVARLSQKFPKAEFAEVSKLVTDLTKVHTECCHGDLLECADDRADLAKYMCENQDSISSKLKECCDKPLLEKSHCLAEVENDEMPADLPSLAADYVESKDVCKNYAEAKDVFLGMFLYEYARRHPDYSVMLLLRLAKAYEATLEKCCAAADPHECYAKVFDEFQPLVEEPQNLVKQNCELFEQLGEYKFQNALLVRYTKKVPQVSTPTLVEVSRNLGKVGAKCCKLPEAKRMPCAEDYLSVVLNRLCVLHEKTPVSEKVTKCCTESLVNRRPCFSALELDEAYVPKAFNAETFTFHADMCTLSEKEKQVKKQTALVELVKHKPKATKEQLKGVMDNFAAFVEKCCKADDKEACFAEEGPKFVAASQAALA
Protocol: as §5

[16] = molecular target: T7, Rat serum albumin (RSA) (rat, UniProt P02770 25-608); assay: as above
T7 construct: Bought protein (Sigma); also called rat albumin
T7 sequence (P02770 25-608): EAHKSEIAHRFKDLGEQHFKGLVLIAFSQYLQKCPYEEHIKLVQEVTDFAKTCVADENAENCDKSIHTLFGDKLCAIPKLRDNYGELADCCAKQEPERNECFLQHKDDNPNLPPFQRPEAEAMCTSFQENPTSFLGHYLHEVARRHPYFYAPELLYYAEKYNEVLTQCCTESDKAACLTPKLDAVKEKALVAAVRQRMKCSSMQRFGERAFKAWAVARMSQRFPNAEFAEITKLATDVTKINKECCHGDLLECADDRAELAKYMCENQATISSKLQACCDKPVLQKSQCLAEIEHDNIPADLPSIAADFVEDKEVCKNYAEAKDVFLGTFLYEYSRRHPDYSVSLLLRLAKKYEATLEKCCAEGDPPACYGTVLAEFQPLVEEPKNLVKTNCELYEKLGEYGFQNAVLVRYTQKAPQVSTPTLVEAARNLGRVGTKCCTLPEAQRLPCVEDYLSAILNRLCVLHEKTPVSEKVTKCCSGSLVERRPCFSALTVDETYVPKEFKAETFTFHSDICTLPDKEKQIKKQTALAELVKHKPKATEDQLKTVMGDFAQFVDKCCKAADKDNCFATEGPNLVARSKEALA
Protocol: as §5

[17] = molecular target: T7, Rat serum albumin (RSA); assay: ELISA on coated rat albumin, anti-human Fc HRP, A650, one site-total binding fit
Protocol: as §5

[18] = molecular target: T3, Human serum albumin (HSA); assay: ELISA on coated human albumin, anti-human Fc HRP, A650, one site-total binding fit
Protocol: as §5

[19] = molecular target: T5, Murine serum albumin (MSA); assay: ELISA on coated murine albumin, anti-human Fc HRP, A650, one site-total binding fit
Protocol: as §5

[20] = molecular target: T6, Cynomolgus monkey serum albumin (CSA); assay: ELISA on coated cynomolgus monkey albumin, anti-human Fc HRP, A650, one site-total binding fit
Protocol: as §5

B1: cx11385 (B10a.v1 VHH x B10a.v1 VHH x hz4A01v51 VHH) (bispecific antibody)
chain: EVQLLESGGGEVQPGGSLRLSCTASGSIANVDMMAWHRQAPGKQREPIAVINDGGSTSYADSVKGRFTISRDNAKNTLYLQMSSLRAEDTAVYYCNTATWRGGERYADWGQGTLVTVKPGSGGGSEVQLLESGGGEVQPGGSLRLSCTASGSIANVDMMAWHRQAPGKQREPIAVINDGGSTSYADSVKGRFTISRDNAKNTLYLQMSSLRAEDTAVYYCNTATWRGGERYADWGQGTLVTVKPGSGGGSEVQLVESGGGEVQPGGSLRLSCAASGFTFSTSGMVWVRQAPGKGLEWVSTISDDARITVYAESVKGRFTISRDNAKNTVYLQMNSLRAEDTAVYYCATYRAGSRIGSYEDYYRGQGTLVTVKPGG
In the case of B1, the “EC50 (read off the curve)” value [1] is reported as roughly 0.07 nM and the “IC50 (read off the curve)” value [2] is reported as roughly 3 nM.

B2: cx11558 (B10a.v2.1 VHH x hz4A01v51 VHH) (bispecific antibody)
chain: EVQLLESGGGEVQPGGSLRLSCAASGSIANVDLMAWHRQAPGKQREPIAVINDAGSTYYAESVKGRFTISRDNAKNTLYLQMNSLRAEDTAVYYCNTATWRGGERYADWGQGTLVTVKPGSGGGSEVQLVESGGGEVQPGGSLRLSCAASGFTFSTSGMVWVRQAPGKGLEWVSTISDDARITVYAESVKGRFTISRDNAKNTVYLQMNSLRAEDTAVYYCATYRAGSRIGSYEDYYRGQGTLVTVKPGG
For B2, the “EC50 (read off the curve)” value [3] was roughly 0.3 nM, the “EC50 (read off the curve)” value [4] was roughly 0.06 nM and the “EC50 (read off the curve)” value [5] was roughly 0.06 nM. For the same binder, the “EC50 (read off the curve)” value [6] was roughly 5 nM, the “EC50 (read off the curve)” value [7] was roughly 4 nM and the “EC50 (read off the curve)” value [8] was roughly 0.4 nM. The “EC50 (read off the curve)” value [9] was roughly 0.4 nM, the “EC50 (read off the curve)” value [10] was roughly 0.5 nM and the “EC50 (read off the curve)” value [11] was roughly 0.5 nM.

B3: cx12003 (bispecific antibody)
single polypeptide, format of FIG. 5(i): B2 chain with E1Q, K118E, E126Q, V130L, K247E
notes: anti-FcRn VHH linked to anti-albumin VHH
In the case of B3, the “EC50 (read off the curve)” value [12] is reported as roughly 0.4 nM, the “EC50 (read off the curve)” value [8] is reported as roughly 0.5 nM and the “EC50 (read off the curve)” value [10] is reported as roughly 0.3 nM.

B4: cx11383 (B10a.v1 VHH x hz4A01v51 VHH) (bispecific antibody)
chain: B2 chain with A23T, L33M, A54G, Y58S, E61D, N83S
In the case of B4, the binding result [1] is reported as “binds” and the “IC50 (read off the curve)” value [2] is reported as roughly 7 nM.

B5: cx12007 (B10a.v2.4 VHH x hz4A01v51.12 VHH) (bispecific antibody)
chain: B2 chain with E11K, K118E, V130L, E136K, K247E
In the case of B5, the “EC50 (read off the curve)” value [12] is reported as roughly 0.4 nM, the “EC50 (read off the curve)” value [4] is reported as roughly 0.4 nM and the “EC50 (read off the curve)” value [8] is reported as roughly 0.4 nM. For the same binder, the “EC50 (read off the curve)” value [10] was roughly 0.3 nM.

B6: cx12006 (bispecific antibody)
single polypeptide, format of FIG. 5(i): B2 chain with E1Q, E11K, K118E, E126Q, V130L, E136K, K247E
notes: as for B3
For B6, the “EC50 (read off the curve)” value [12] was roughly 0.4 nM, the “EC50 (read off the curve)” value [4] was roughly 0.4 nM and the “EC50 (read off the curve)” value [8] was roughly 0.4 nM. The “EC50 (read off the curve)” value [10] was roughly 0.3 nM.

B7: cx12008 (bispecific antibody)
single polypeptide, format of FIG. 5(i): B2 chain with K118R, K247R
notes: as for B3
With B7 the “EC50 (read off the curve)” value [12] was roughly 0.4 nM, the “EC50 (read off the curve)” value [4] was roughly 0.4 nM and the “EC50 (read off the curve)” value [8] was roughly 0.4 nM. The “EC50 (read off the curve)” value [10] was roughly 0.7 nM.

B8: cx5009 (hz4A01v51-NNT-hFc) (Fc fusion)
chain: EVQLVESGGGEVQPGGSLRLSCAASGFTFSTSGMVWVRQAPGKGLEWVSTISDDARITVYAESVKGRFTISRDNAKNTVYLQMNSLRAEDTAVYYCATYRAGSRIGSYEDYYRGQGTLVTVKPGGGGPSVFLFPPKPKDTLMISRTPEVTCVVVDVSHEDPEVKFNWYVDGVEVHNAKTKPREEQYNSTYRVVSVLTVLHQDWLNGKEYKCKVSNKALPAPIEKTISKAKGQPREPQVYTLPPSRDELTKNQVNLTCLVKGFYPSDIAVEWESNGQPENNYKTTPPVLDSDGSFFLNSTLTVDKSRWQQGNVFSCSVMHEALHNHYTQKSLSLSPGSGGGGSGGGGS
notes: also called humanized hz4A01v51; hx4A01v51
A Kd [13] of less than 0.3 nM, a maximal binding [13] greater than 90% and a Kd [14] of less than 0.3 nM were found for B8 in this work. The maximal binding [14] was greater than 90%, the Kd [15] was less than 0.3 nM and the maximal binding [15] was greater than 90%. For the same binder, the Kd [16] was less than 0.3 nM, the maximal binding [16] was greater than 90% and the Kd [17] was 0.234 nM. The Kd [18] was 0.195 nM, the Kd [19] was 0.207 nM and the Kd [20] was 0.189 nM.

B9: cx12032 (B10a.v2.1 VHH x hz4A01v51 VHH) (bispecific antibody)
chain: EVQLLESGGGEVQPGGSLRLSCAASGSIANVDLMAWHRQAPGKQREPIAVINDAGSTYYAESVKGRFTISRDNAKNTLYLQMNSLRAEDTAVYYCNTATWRGGERYADWGQGTLVTVKPEVQLVESGGGEVQPGGSLRLSCAASGFTFSTSGMVWVRQAPGKGLEWVSTISDDARITVYAESVKGRFTISRDNAKNTVYLQMNSLRAEDTAVYYCATYRAGSRIGSYEDYYRGQGTLVTVKPGG
In the case of B9, the “EC50 (read off the curve)” value [3] is reported as roughly 0.3 nM, the “EC50 (read off the curve)” value [9] is reported as roughly 0.6 nM and the “EC50 (read off the curve)” value [11] is reported as roughly 0.5 nM.
